Data reported in the RNAGym collection of RNA variant scans (doi:10.1073/pnas.2313332121).

B1: TPR t1 (parent)
chain: GACCAAUCUGCCCUCAGAGCUCGAGAACAUCUUCGGAUGCAGAGGAGGCAGGCUUCGGUGGCGCGAUAGCGCCAACGUCCUCAACCUCCAAUGCAUCCCACCACAUGAUGAUGCCUGAAGAGCCUUGGUUUUUUG

Variants of: B1
Assay: polymerase ribozyme fitness, log enrichment relative to wild type (log ratio); higher = more active; in vitro selection for triplet polymerase activity
Method in brief: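 Each subunit of a heterodimeric triplet polymerase ribozyme was mutagenized into a library by PCR, transcribed, and subjected to one round of in vitro selection, run in triplicate. Libraries were annealed with a biotinylated primer, the partner subunit and triplets, incubated frozen at −7 °C, and extended constructs were gel-excised, captured on streptavidin beads and recovered by RT-PCR. Input and output libraries were sequenced on Illumina, keeping genotypes with ≥10 input reads and ≥1 read per output. Fitness is log base 2 of genotype enrichment divided by wild-type enrichment, from inverse-variance-weighted replicate averages.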

Variant	polymerase ribozyme fitness (log ratio)
C11G C28G C56G C85G	-6.05
C8G C124U	0.949
C72G G77C A95G C101G	-2.74
G47U G61A	-0.861
A50C G69U U125A	0.0264
C72G A90C C101U	-1.47
A29C U55G G60U A75U	-2.08
A41U C53U	-1.15
C13U C56U U67G G71U U106G C114G	-7.12
G51U C79G C94A C124A	-1.56
C53U G60U C101G	-1.27
G65A U112A	-2.74
A5C C72U	-1.39
G61U A121G	2.12
U106A U116C	-0.567
G39A G57U G71U U78G	-1.84
G60U C89G C101U U112A C115U	-4.63
C89G C94U	-0.951
G47U C53G U96G C104U A118G C124U	-1.59
U21G C62A	-2.26
C34U G65C G117C A121C	-7.56

Variant	polymerase ribozyme fitness (log ratio)
G10U U14A U132A	-1.64
C11U C20U A27U	-5.92
A18U G57A U106A	-5.57
G57A U130A	-1.13
U55G C56G U78A C99U U131A	-4.29
G47C G52C A68U U109A	-7.13
G71C C72G C123G	-5.34
A43U U54A A66U U112A	-3.74
C8G G19U G48A A50U U54G C72U U92A U112A	-4.04
C11U C28G C85A C104U G113C	-6.42
G10U A26U	-2.52
G48A A95G U132A	-1.21
A6G C49G C56G U81G C114U U132C	-5.17
A37C C70U C85U C98U G113U U133A	-5.51
C22G A83U C89G A121G	-3.33
C15G U109A G120U C123A	-6.64
C12A U21A A46C C73A U87G	-0.648
C40G C79A	-2.58
G17U U87G	-2.25
U9G C31G U87A C114A	-5.66
C13U A16C U106G	-2.43

Variant	polymerase ribozyme fitness (log ratio)
A50U C56U C73G C88U	-3.49
C64G C72U	-6.14
G107U G113U	-6.69
C28U G39A G61U	-2.23
U7C A18C G42U G77U A84U	-2.98
U55G C72G C82U A100U G113U	-5.31
C8U G39A	0.0776
G52A G63U U129A	-3.94
C89A U125A	-1.17
C8G C22U G23A C123G	-7.38
U9G G42U A121C	0.979
A46U C70A	-2.18
C11G C82A	-0.254
C12A U32C G45A U132A	-1.76
C72U C94G G110C	-5.81
G39U G57A	-0.803
C12U A46C A100G	-3.74
A74U	-0.247
G61A C101G	-1.59
G58U G60C G117U C123A	-2.45
C15G G19A C73U U112A G122U	-3.84

Variant	polymerase ribozyme fitness (log ratio)
G44U G69U G117C A121C	-4.54
G44A C53A	0.047
A50G G60C C94U U129G	-3.05
C13U C15U U32G C124A	-6.8
G17A C98U	-5.09
U9G C53A	0.283
C8A C34U C53U C62G U109A	-6.27
C15U G71C	-1.05
C8A C53U C114A	0.0648
C53U C62U A95C	-1.08
C3G G39U	-2.39
C40A C49A C53U G110A U130G	-4.63
C62U U87G U109A	-5.76
C15G G52U C76U U96C C99U A111G	-7.38
A46C A100G	-4.28
G61A C115A	0.519
C104U G127C	-1.03
G71A C104A U129A	-4.5
C79A U112A C115A C123G	0.259
A5C G120A	0.639
